In publication PMC7603899 (Journal of molecular biology, 2020):

Molecular target: the molecule itself
Assay: crystal structure

B1: Atg11 residues 699-800 (Atg11_(699-800)) (domain or fragment, S. cerevisiae, UniProt Q12527 699-800, looked up)
chain: NNHQIQELESNVDDLLHQLQLLKEENNRKSMQISEMGKKISDLEVEKTAYRETLTNLNQELARLTNEEQSHRTEIFTLNASFKKQLNDIISQDNEKIEKLTG
- stoichiometry N: 2
